Key:
[1] = compound: O=C(O)[C@H]1CNC[C@@H](CN/N=C/c2ccc(-c3cccc4ccccc34)o2)C1; test: (§1) Non-competitive inhibition of human GAT1 expressed in COS cells assessed as reduction in [2H6]GABA uptake by measuring [2H6]GABA Vmax at 10 uM preincubated for 25 mins followed by [3H]GABA addition and measured after 4 mins by liquid scintillation counting method (reference value: 570 +/- 53 amol/cell.min); assay type: cell-based
[2] = compound: O=C(O)[C@H]1CNC[C@@H](CN/N=C/c2ccc(-c3cc(C(F)(F)F)cc(C(F)(F)F)c3)o2)C1; test: as §1; assay type: cell-based
[3] = compound: O=C(O)[C@H]1CNC[C@@H](CN/N=C/c2ccc(-c3cccc4ccccc34)o2)C1; test: as §1, with “30” for “10”; assay type: cell-based
[4] = compound: O=C(O)[C@H]1CNC[C@@H](CN/N=C/c2ccc(-c3cc(C(F)(F)F)cc(C(F)(F)F)c3)o2)C1; test: as §1, with “30” for “10”; assay type: cell-based
[5] = substrate: Cc1ccsc1C(=CCCN1CCC[C@@H](C(=O)O)C1)c1sccc1C; conditions: Homo sapiens; 300 nM
[6] = substrate: Cc1ccsc1C(=CCCN1CCC[C@@H](C(=O)O)C1)c1sccc1C; conditions: Homo sapiens; 100 nM
[7] = compound: O=C(O)[C@H]1CNC[C@@H](CN/N=C/c2ccc(-c3cccc4ccccc34)o2)C1; test: (§2) Non-competitive inhibition of human GAT1 expressed in COS cells assessed as reduction in [2H6]GABA uptake by measuring [2H6]GABA Km(app) at 30 uM preincubated for 25 mins followed by [3H]GABA addition and measured after 4 mins by liquid scintillation counting method (reference value: 12 +/- 1.2 uM); assay type: cell-based
[8] = compound: O=C(O)[C@H]1CNC[C@@H](CN/N=C/c2ccc(-c3cc(C(F)(F)F)cc(C(F)(F)F)c3)o2)C1; test: as §2; assay type: cell-based
[9] = substrate: Cc1ccsc1C(=CCCN1CCC[C@@H](C(=O)O)C1)c1sccc1C; conditions: Homo sapiens; 300 nM; remark: listed apart in the source
Description: Mixed-type inhibition of human GAT1 expressed in COS cells assessed as reduction in [2H6]GABA uptake by measuring [2H6]GABA Vmax at 300 nM preincubated for 25 mins followed by [3H]GABA addition and measured after 4 mins by liquid scintillation counting method

[10] = compound: O=C(O)[C@H]1CNC[C@@H](CN/N=C/c2ccc(-c3cccc4ccccc34)o2)C1; test: (§3) Non-competitive inhibition of human GAT1 expressed in COS cells assessed as reduction in [2H6]GABA uptake by measuring [2H6]GABA Km(app) at 10 uM preincubated for 25 mins followed by [3H]GABA addition and measured after 4 mins by liquid scintillation counting method (reference value: 12 +/- 1.2 uM); assay type: cell-based
[11] = compound: O=C(O)[C@H]1CNC[C@@H](CN/N=C/c2ccc(-c3cc(C(F)(F)F)cc(C(F)(F)F)c3)o2)C1; test: as §3; assay type: cell-based
[12] = substrate: Cc1ccsc1C(=CCCN1CCC[C@@H](C(=O)O)C1)c1sccc1C; conditions: Homo sapiens; 100 nM; remark: listed apart in the source

B1: Sodium- and chloride-dependent GABA transporter 1 (Homo sapiens), P30531 (protein)
chain: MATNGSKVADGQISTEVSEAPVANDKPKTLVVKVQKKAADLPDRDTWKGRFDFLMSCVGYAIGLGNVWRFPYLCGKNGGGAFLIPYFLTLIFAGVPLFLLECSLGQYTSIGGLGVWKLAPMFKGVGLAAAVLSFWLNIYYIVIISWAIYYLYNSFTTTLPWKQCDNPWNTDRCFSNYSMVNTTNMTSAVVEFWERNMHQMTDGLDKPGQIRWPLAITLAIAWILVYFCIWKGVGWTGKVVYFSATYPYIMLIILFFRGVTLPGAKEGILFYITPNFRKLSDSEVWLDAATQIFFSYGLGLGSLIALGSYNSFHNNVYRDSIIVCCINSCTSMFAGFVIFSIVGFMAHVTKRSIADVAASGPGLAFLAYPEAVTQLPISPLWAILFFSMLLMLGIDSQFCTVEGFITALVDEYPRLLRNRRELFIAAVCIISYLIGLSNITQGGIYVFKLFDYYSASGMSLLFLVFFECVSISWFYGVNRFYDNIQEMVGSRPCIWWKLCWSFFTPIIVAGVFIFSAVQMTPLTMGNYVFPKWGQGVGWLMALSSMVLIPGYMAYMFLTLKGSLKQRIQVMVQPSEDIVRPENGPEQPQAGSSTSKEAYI
Vmax (amol/cell.min) [1]: 332
Vmax (amol/cell.min) [2]: 341
Vmax (amol/cell.min) [3]: 165
Vmax (amol/cell.min) [4]: 183
Km [5]: 29.4 µM
Km [6]: 19.7 µM
Km [7]: 5.7 µM
Km [8]: 5.1 µM
Vmax (amol/cell.min) [9]: 419
Km [10]: 10.1 µM
Km [11]: 8.2 µM
Vmax (amol/cell.min) [12]: 491
